# Data published in patent US10925971B2, “Methods of treating PRLR positive breast cancer” (Regeneron Pharmaceuticals, Inc., priority 2016, dated 2021).
# B1: H1H6958N2-DM1: anti-PRLR antibody H1H6958N2 conjugated to the maytansinoid DM1 through an SMCC linker (conjugate)
# VH: QVQLVESGGGVVQPGRSLRLSCGASGFTFRNYGMQWVRQGPGKGLEWVTLISFDGNDKYYADSVKGRFTISRDNSKNTLFLQMNSLRTEDTAVYYCARGGDFDYWGQGTLVTVSS
# VL: DIQMTQSPSSLSASVGDRVTITCRASQDIRKDLGWYQQKPGKAPKRLIYAASSLHSGVPSRFSGSGSGTEFTLTISSLQPEDFATYYCLQHNSYPMYTFGQGTKLEIK
# Assays:
# Assay type in all cases: cell-based, human
# HEK293 (293) cells = assay: In vitro cell viability (cell kill) assay, CCK8
# Outline: (§1)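 Three-day exposure to DM1-conjugated anti-PRLR antibodies or DM1-SMe, 500 nM down to 5 pM, in cells engineered to express human PRLR. Surviving cells are quantified by CCK8 absorbance or by imaged Hoechst nuclear counts, relative to untreated wells.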
# PC3 cells = assay: In vitro cell viability (cell kill) assay, CCK8; details: Table 18
# Outline: as §1
# MCF7 (MCF7/ATCC) cells = assay: In vitro cell viability (cell kill) assay, nuclear counts; details: MCF7 cells, approximately 3000 copies of PRLR per cell
# Outline: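 Anti-PRLR–DM1 ADCs (non-cleavable SMCC linker) or free DM1-SMe, 500 nM to 5 pM for 3 days on parental or hPRLR-overexpressing lines. HEK293: CCK8 OD450; MCF7: Hoechst nuclear counts by imaging.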
# PRLR expressing cells = assay: In vitro cell viability (cell kill) assay, several cell backgrounds; details: PC3/hPRLR and MCF7/hPRLR cell lines
# From the text: PRLR-overexpressing cells, including HEK293, PC3, MCF7 and NCI-N87, were generated to assess the ability of anti-PRLR conjugated antibodies to reduce cell viability. For comparative purposes, PC3 and T47D cells with overexpressed ErbB2 were also generated, as well as an MCF7 cell line over-expressing both hPRLR and hErbB2. Briefly, Lipofectamine® 2000-mediated transfection methodology was utilized to generate HEK293 cells expressing human PRLR (HEK293/hPRLR) or human ErbB2 (HEK293/hErbB2). Lipofectamine LTX with Plus Reagent was used to generate PC3 cells expressing human PRLR (PC3/hPRLR) or human ErbB2 (PC3/hErbB2). Lentiviral-mediated transduction was utilized to generate MCF7 cells expressing human PRLR (MCF7/hPRLR), NCI-N87 cells expressing human PRLR (NCI-N87/hPRLR), T47D cells over-expressing human ErbB2 (T47D/hErbB2), and MCF7 cells expressing both human PRLR and human ErbB2 (MCF7/hPRLR/hErbB2). All lines were selected for at least two weeks in complete growth media plus appropriate selection reagents. Stably expressing populations were enriched for PRLR expression via FACS using the anti PRLR antibody Control I.
# Next, the ability of anti-PRLR-DM1 antibody-drug conjugates (i.e., anti-PRLR antibodies conjugated to DM1 via a non-cleavable linker [SMCC]) to reduce cell viability was determined using in vitro cell based assays. Cells were seeded in PDL-coated 96 well plates at 1500 to 10000 cells per well in complete growth media and allowed to grow overnight. For cell viability curves, ADCs or free DM1 (as the methyl disulfide derivative DM1-SMe) were added to the cells at final concentrations ranging from 500 nM to 5 pM and incubated for 3 days. The 293, PC3 and T47D cells were incubated with CCK8 (Dojindo, Rockville, Md.) for the final 1-3 hours and the absorbance at 450 nm (OD450) was determined on a Flexstation3 (Molecular Devices, Sunnyvale, Calif.). MCF7 cells were treated with Hoechst 33342 nuclear stain while being fixed with 4% formaldehyde. Images were acquired on the ImageXpress micro XL (Molecular Devices, Sunnyvale, Calif.) and nuclear counts were determined via Columbus image analysis software (Perkin Elmer, Shelton, Conn.). Background OD450 values (PC3, 293, and T47D) or nuclear counts (MCF7) from digitonin (40 nM) treated cells was subtracted from all wells and viability was expressed as a percentage of the untreated controls. IC50 values were determined from a four-parameter logistic equation over a 10-point response curve (GraphPad Prism).
molecule,measurement,setting,value
B1,% Kill,"HEK293 (293) cells; 293, Table 11, 3 days",98%
same,IC50,"HEK293 (293) cells; 293, Table 11, 3 days",75 nM
same,% Kill,"HEK293 (293) cells; HEK293, Table 13, + 15 nM PRL",86%
same,IC50,"HEK293 (293) cells; HEK293, Table 13, + 15 nM PRL",110 nM
same,% Kill,PC3 cells,81%
same,IC50,PC3 cells,110 nM
same,MCF7 cell killing in vitro,MCF7 (MCF7/ATCC) cells,not inhibited
same,"cell killing, non-cleavable DM1 ADCs versus cleavable MMAE ADCs",PRLR expressing cells,nearly equivalent cell killing
